The source of these data is the supplement of paper PMC7877785.

± gives the uncertainty stated by the source.

A short description of this series: self-splicing fitness, log relative to wild type (ln ratio); higher = more splicing; Tetrahymena group I intron in knt gene, E. coli kanamycin selection, DiMSum; sequences stand for … in CUCUCU…GGAGGGAAAAGUUAUCAGGCAUGCACCUGGUAGCUAGUCUUUAAACCAAUAGAUUGCAUCGGUUUAAAAGGCAAGACCGUCAAAUUGCGGGAAAGGGGUCAACAGCCGUUCAGUACCAAGUCUCAGGGGAAACUUUGAGAUGGCCUUGCAAAGGGUAUGGUAAUAAGCUGACGGACAUGGUCCUAACCACGCAGCCAAGUCCUAAGUCAACAGAUCUUCUGUUGAUAUGGAUGCAGUUCACAGACUAAAUGUCGGUCGGGGAAGAUGUAUUCUUCUCAUAAGAUAUAGUCGGACCUCUCCUUAAUGGGAGCUAGCGGAUGAAGUGAUGCAACACUGGAGCCGCUGGGAACUAAUUUGUAUGCGAAAGUAUAUUGAUUAGUUUUGGAGUACUCGUGGUCG
The essentials: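 Six replicate transformations of E. coli BL21(DE3) with a pET-22b(+) library were grown overnight at 37°C or 30°C. The library randomised all eight P1ex-region intron nucleotides, the intron lying in the knt kanamycin-resistance gene, and plates were LB agar with or without 25 μg/mL kanamycin plus 100 μg/mL carbenicillin, 50 μM IPTG and 0.2% rhamnose. Pooled colonies were amplicon-sequenced on an Illumina HiSeq 2500, and fitness is the DiMSum error-weighted combination of wild-type-normalised replicate fold changes, kanamycin versus none.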

For the sequence GCCGAGCAAUAUUACGUGAU, the “self-splicing fitness (ln)” value (30 °C) is -1.01 ± 0.073 and the “self-splicing fitness (ln)” value (37 °C) is -0.638 ± 0.088.

Regarding ACUUAGCAAUAUUACGACGU, the “self-splicing fitness (ln)” value is, setting by setting: (30 °C) -0.13 ± 0.076; (37 °C) 0.549 ± 0.079.

As for UCAAAGCAAUAUUACGUCAC, the “self-splicing fitness (ln)” value is -3.89 ± 0.36 (30 °C) and -3.01 ± 0.4 (37 °C).

On to GUUUAGCAAUAUUACGAAGA, for which the “self-splicing fitness (ln)” value (37 °C) was -0.651 ± 0.34.

For CAGCAGCAAUAUUACGGGAU, the “self-splicing fitness (ln)” value (30 °C) is -4.61 ± 0.22 and the “self-splicing fitness (ln)” value (37 °C) was -2.35 ± 0.12.

On to UCUCAGCAAUAUUACGUUGA, for which the “self-splicing fitness (ln)” value (30 °C) is -2.9 ± 0.2 and the “self-splicing fitness (ln)” value (37 °C) was -2.93 ± 0.24.

Regarding ACUGAGCAAUAUUACGGGUG, the “self-splicing fitness (ln)” value (30 °C) was -2.49 ± 0.15 and the “self-splicing fitness (ln)” value (37 °C) is -1.38 ± 0.15.

With GUCAAGCAAUAUUACGGACG, the “self-splicing fitness (ln)” value is -3.64 ± 0.27 (30 °C) and -2.01 ± 0.13 (37 °C).

As to UACCAGCAAUAUUACGAGUA, the “self-splicing fitness (ln)” value is, setting by setting: (30 °C) -1.25 ± 0.085; (37 °C) -1.69 ± 0.08.

With GCAAAGCAAUAUUACGGACU, the “self-splicing fitness (ln)” value was -0.621 ± 0.047 (30 °C) and 0.0957 ± 0.075 (37 °C).

On to UACUAGCAAUAUUACGGCAG, for which the “self-splicing fitness (ln)” value is -0.408 ± 0.075 (30 °C) and 0.134 ± 0.12 (37 °C).

As to UUCGAGCAAUAUUACGGUUU, the “self-splicing fitness (ln)” value (30 °C) is -4.44 ± 0.36 and the “self-splicing fitness (ln)” value (37 °C) is -1.93 ± 0.22.

For ACCAAGCAAUAUUACGGGAU, the “self-splicing fitness (ln)” value by setting is: (30 °C) -2.53 ± 0.088; (37 °C) -1.39 ± 0.083.

With CAAGAGCAAUAUUACGAGUC, the “self-splicing fitness (ln)” value runs as follows: (30 °C) -2.88 ± 0.28; (37 °C) -0.209 ± 0.28.

Regarding UGGGAGCAAUAUUACGUUAU, the “self-splicing fitness (ln)” value by setting is: (30 °C) -3.22 ± 0.27; (37 °C) -1.86 ± 0.34.

On to GACGAGCAAUAUUACGGGAC, for which the “self-splicing fitness (ln)” value is -3.94 ± 0.31 (30 °C) and -2.23 ± 0.46 (37 °C).

For GCUGAGCAAUAUUACGAGAC, the “self-splicing fitness (ln)” value is, setting by setting: (30 °C) -3.06 ± 0.36; (37 °C) 0.142 ± 0.23.

Consider ACCCAGCAAUAUUACGUCGC, for which the “self-splicing fitness (ln)” value was -1.39 ± 0.069 (30 °C) and -0.784 ± 0.076 (37 °C).

As to UCUUAGCAAUAUUACGAAUG, the “self-splicing fitness (ln)” value (30 °C) is -2.87 ± 0.43 and the “self-splicing fitness (ln)” value (37 °C) was -2.01 ± 0.38.

Take CGGUAGCAAUAUUACGUAUA: the “self-splicing fitness (ln)” value (30 °C) is -3.71 ± 0.24 and the “self-splicing fitness (ln)” value (37 °C) is -2.53 ± 0.18.

Take AAGUAGCAAUAUUACGGUGA: the “self-splicing fitness (ln)” value reads like this: (30 °C) -1.03 ± 0.11; (37 °C) -0.771 ± 0.14.

Take UCGCAGCAAUAUUACGCCCU: the “self-splicing fitness (ln)” value was -1.18 ± 0.13 (30 °C) and -0.902 ± 0.15 (37 °C).

In the case of UCAUAGCAAUAUUACGAUCG, the “self-splicing fitness (ln)” value was -0.885 ± 0.09 (30 °C) and -0.426 ± 0.12 (37 °C).

Take GAGAAGCAAUAUUACGUCCU: the “self-splicing fitness (ln)” value (30 °C) was -1.59 ± 0.23.

Consider UGGAAGCAAUAUUACGCCUG, for which the “self-splicing fitness (ln)” value (30 °C) is -0.491 ± 0.083 and the “self-splicing fitness (ln)” value (37 °C) is -0.15 ± 0.099.

With GUGGAGCAAUAUUACGCCUC, the “self-splicing fitness (ln)” value runs as follows: (30 °C) -3.07 ± 0.3; (37 °C) -1 ± 0.25.

With CGCUAGCAAUAUUACGUUCU, the “self-splicing fitness (ln)” value (30 °C) was -2.16 ± 0.11 and the “self-splicing fitness (ln)” value (37 °C) is -1.67 ± 0.12.

Regarding GAUUAGCAAUAUUACGGUCA, the “self-splicing fitness (ln)” value (30 °C) is -1.38 ± 0.15 and the “self-splicing fitness (ln)” value (37 °C) is -1.2 ± 0.12.

On to CAGAAGCAAUAUUACGUACA, for which the “self-splicing fitness (ln)” value is -2.14 ± 0.11 (30 °C) and -0.932 ± 0.12 (37 °C).

As to ACCAAGCAAUAUUACGGACU, the “self-splicing fitness (ln)” value was -0.029 ± 0.046 (30 °C) and 0.262 ± 0.062 (37 °C).

Turning to CCACAGCAAUAUUACGGAGU, the “self-splicing fitness (ln)” value runs as follows: (30 °C) -3.32 ± 0.16; (37 °C) -1.32 ± 0.14.

As for ACCUAGCAAUAUUACGGUCA, the “self-splicing fitness (ln)” value runs as follows: (30 °C) -1.74 ± 0.091; (37 °C) -0.306 ± 0.082.

On to CCUAAGCAAUAUUACGGCCA, for which the “self-splicing fitness (ln)” value by setting is: (30 °C) -2.55 ± 0.22; (37 °C) -2.58 ± 0.26.

In the case of GAUGAGCAAUAUUACGUAUC, the “self-splicing fitness (ln)” value reads like this: (30 °C) -3.54 ± 0.37; (37 °C) -2.64 ± 0.31.

For the sequence AUAUAGCAAUAUUACGGCUU, the “self-splicing fitness (ln)” value is, setting by setting: (30 °C) 0.0949 ± 0.099; (37 °C) 0.269 ± 0.12.

UGGGAGCAAUAUUACGCUGU: the “self-splicing fitness (ln)” value (37 °C) is -1.2 ± 0.41.

Take UCGAAGCAAUAUUACGCUUA: the “self-splicing fitness (ln)” value by setting is: (30 °C) -2.28 ± 0.28; (37 °C) -3.61 ± 0.37.

As to ACCGAGCAAUAUUACGCGUA, the “self-splicing fitness (ln)” value is -2.38 ± 0.14 (30 °C) and -0.999 ± 0.12 (37 °C).
